According to patent CN114075285A:

What was measured:
[1] = target: CD38 antigen on the cell surface (Daudi cells; NCI-H929 cells) (human) (UniProt P28907); experiment: cell-based or functional assay
[2] = target: CD38 (human), analyte in Biacore (human) (UniProt P28907); experiment: SPR (Biacore 8K), antibody captured on Protein A chip, CD38 as analyte, 25℃

## Isotype control (antibody)
[1]
  ADCC reporter (Jurkat-Lucia-NFAT-CD16 + NCI-H929), EC50(μg/mL): 0.375 µg/mL
  ADCC reporter (Jurkat-Lucia-NFAT-CD16 + NCI-H929), Top MFI: 2120

## RB0021 PC(Daratumumab) (antibody)
[1]
  ADCC reporter (Jurkat-Lucia-NFAT-CD16 + NCI-H929), EC50(μg/mL): 0.017 µg/mL
  ADCC reporter (Jurkat-Lucia-NFAT-CD16 + NCI-H929), Top MFI: 57200
[2]
  Kd: 88.6 nM
